The target in test [1] is BCMA-FC抗原 (UniProt Q02223). As to the kind of experiment: phage ELISA on coated BCMA-FC, helper phage control. Background: ELISA stands for enzyme-linked immunosorbent assay.
Test [2] addresses BCMA-his抗原 (UniProt Q02223). As to the kind of experiment: phage ELISA on coated BCMA-his, helper phage control.
Test [3] deals with BCMA-his抗原 (UniProt Q02223). Described as above. The source holds these as a separate data set.
For test [4], the target named is BCMA-his抗原 (UniProt Q02223). The test is described as follows: phage ELISA on coated BCMA-his.
Test [5] has as its target T1, BCMA抗原 (UniProt Q02223 1-54).
T1 construct: Recombinant BCMA antigen as immobilised on the Biacore chip and coated in the specificity ELISA; also called B细胞成熟抗原; B cell maturation antigen
T1 sequence (looked up): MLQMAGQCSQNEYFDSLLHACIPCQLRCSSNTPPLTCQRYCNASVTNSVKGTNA
The test is described as follows: SPR, Biacore T2000, BCMA amine-coupled to the chip, VHH injected, 25°C.

Test [6] deals with T2, CD38 (UniProt P28907 43-300).
T2 construct: Coated antigen in the specificity ELISA; also called CD38抗原
T2 sequence (looked up): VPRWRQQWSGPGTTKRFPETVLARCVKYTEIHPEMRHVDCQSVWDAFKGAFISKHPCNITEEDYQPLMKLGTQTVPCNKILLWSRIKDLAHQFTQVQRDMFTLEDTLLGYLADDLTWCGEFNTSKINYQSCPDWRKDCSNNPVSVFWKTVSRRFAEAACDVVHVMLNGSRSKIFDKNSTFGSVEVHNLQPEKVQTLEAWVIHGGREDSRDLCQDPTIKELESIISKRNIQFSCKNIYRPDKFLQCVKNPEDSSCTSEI
The test is described as follows: ELISA on antigen coated at 10ug/mL.

Test [7] addresses T3, CD138 (UniProt P18827 23-254, limits assumed).
T3 construct: Coated antigen in the specificity ELISA; also called CD138抗原
T3 sequence (looked up): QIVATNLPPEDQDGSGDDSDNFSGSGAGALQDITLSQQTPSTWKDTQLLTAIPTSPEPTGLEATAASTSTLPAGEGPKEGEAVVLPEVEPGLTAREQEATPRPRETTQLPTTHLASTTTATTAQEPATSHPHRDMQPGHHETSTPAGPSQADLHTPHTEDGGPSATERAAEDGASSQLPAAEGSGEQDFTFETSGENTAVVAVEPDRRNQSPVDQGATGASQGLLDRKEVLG
The test is described as follows: ELISA on antigen coated at 10ug/mL.

Test [8] concerns the target BCMA-FC抗原 (UniProt Q02223). The test is described as follows: phage ELISA on coated BCMA-FC.

Where “and” joins values, the source holds several entries; their conditions need not be identical. Equal values may be shown once.

A word on the Kd: it is the concentration at which binding is half-saturated.

Turning to M13K07, the OD450 in test [1] was 0.518 OD450 and 0.332 OD450; in test [2], 2.36 OD450 and 2.38 OD450; in test [3], 0.85 OD450 and 0.631 OD450.

B1: BCMA单域抗体B65 (VHH)
VHH: QLQLVESGGGLVQPGGSLRLSCAASGSISGIYAMGWYRQAPGKQRRLVAAITSGGDTFHADSVKGRFTISRDNAKNTMYLQMNSLKPEDTAVYYCNVAPWGDYDVRADFGSWGQGTQVTVSS
notes: FITC-labelled for flow cytometry; also called B65抗体
The molecule B1 registered an OD450 in test [4] of 2.76 OD450. The Kd in test [5] was found to be 0.32 nM. Further, the binding result in test [6] and in test [7] was “no binding” throughout.

B2: BCMA单域抗体B1 (VHH)
VHH: QVQLVESGGGLVQPGGSLRLSCTASGSILSIYAMGWYRQAPGKQRELVAAINISSNTFYRDSVKGRFTISRDNAENTVYLQMNSLKPEDTAVYYCNVAPWGDYDVKTDFGGWGQGTQVTVSS
notes: FITC-labelled for flow cytometry; also called B1抗体
On to B2, for which the OD450 came to 2.96 OD450 in test [8] and 2.33 OD450 in test [4]. The Kd in test [5] was found to be 2.14 nM. In addition, the binding result in test [6] and in test [7] was “no binding” in each case.

These data come from patent publication CN109942708A (SHANGHAI KEQI PHARMACEUTICAL TECH CO LTD, dated 2019).
